From US20230227838A1, “ENHANCED CELL SURVIVAL AGAINST BIOTIC AND ABIOTIC STRESSES THROUGH SALICYLICK ACID-INDUCED NPR1 CONDENSATES” (priority 2020, published 2023)

B1: sim3: SUMOylation-deficient mutant of NPR1 (protein)
chain: MDTTIDGFADSYEISSTSFVATDNTDSSIVYLAAEQVLTGPDVSALQLLSNSFESVFDSPDDFYSDAKLVLSDGREVSFHRCVLSARSSFFKSALAAAKKEKDSNNTAAVKLELKEIAKDYEVGFDSVVTVLAYVYSSRVRPPPKGVSECADENCCHVACRPAVDFMLEVLYLAFIFKIPELITLYQRHLLDVVDKVVIEDTLVILKLANICGKACMKLLDRCKEIIVKSNVDMVSLEKSLPEELVKEIIDRRKELGLEVPKVKKHVSNVHKALDSDDIELVKLLLKEDHTNLDDACALHFAVAYCNVKTATDLLKLDLADVNHRNPRGYTVLHVAAMRKEPQLAASALEKGASASEATLEGRTALMIAKQATMAVECNNIPEQCKHSLKGRLCVEILEQEDKREQIPRDVPPSFAVAADELKMTLLDLENRVALAQRLFPTEAQAAMEIAEMKGTCEFIVTSLEPDRLTGTKRTSPGVKIAPFRILEEHQSRLKALSKTVELGKRFFPRCSAVLDQIMNCEDLTQLACGEDDTAEKRLQKKQRYMEIQETLKKAFSEDNLELGNSSLTDSTSSTSKSTGGKRSNRKLSHRRR
modifications: left off: small tags and cut ends
notes: SUMOylation-deficient mutant of NPR1
B2: S55/59D: phosphomimic mutant of NPR1 at S55/59 (protein)
chain: MDTTIDGFADSYEISSTSFVATDNTDSSIVYLAAEQVLTGPDVSALQLLSNSFEDVFDDPDDFYSDAKLVLSDGREVSFHRCVLSARSSFFKSALAAAKKEKDSNNTAAVKLELKEIAKDYEVGFDSVVTVLAYVYSSRVRPPPKGVSECADENCCHVACRPAVDFMLEVLYLAFIFKIPELITLYQRHLLDVVDKVVIEDTLVILKLANICGKACMKLLDRCKEIIVKSNVDMVSLEKSLPEELVKEIIDRRKELGLEVPKVKKHVSNVHKALDSDDIELVKLLLKEDHTNLDDACALHFAVAYCNVKTATDLLKLDLADVNHRNPRGYTVLHVAAMRKEPQLILSLLEKGASASEATLEGRTALMIAKQATMAVECNNIPEQCKHSLKGRLCVEILEQEDKREQIPRDVPPSFAVAADELKMTLLDLENRVALAQRLFPTEAQAAMEIAEMKGTCEFIVTSLEPDRLTGTKRTSPGVKIAPFRILEEHQSRLKALSKTVELGKRFFPRCSAVLDQIMNCEDLTQLACGEDDTAEKRLQKKQRYMEIQETLKKAFSEDNLELGNSSLTDSTSSTSKSTGGKRSNRKLSHRRR
modifications: left off: small tags and cut ends

Each molecule was assayed on CUL3 (assay: BiFC assay of interaction with CUL3). Settings: 1 mM SA for 5 hr.
Assay type: cell-based, Arabidopsis thaliana
From the text: Plasmid construction and E. coli-based ubiquitination: The coding sequences for all Arabidopsis genes were amplified from cDNA. Point mutations of AtNPR1 (AT1G64280) were generated using the QuikChange II site-directed mutagenesis kit (Agilent). Overlap PCR was used to generate the deletion/truncation mutations of AtCUL3A (AT1G26830) and AtNPR1. The WT and mutated coding sequences for all genes and gene fusions were sub-cloned into the pDONR207 gateway donor vector and confirmed by sequencing. The obtained entry vectors were recombined into either plant or E. coli destination vectors without or with an N- or C-terminal tag. For in planta expression, genes were recombined into the plant binary vectors pK7FWG2, pSITE-4NB and pLN462 to generate C-terminal eGFP, mCherry and HA fusions, respectively; into pK7WGF2, pEG201, pEG202, pEG203 and pEG204 to generate N-terminal eGFP, HA, FLAG, Myc and V5 fusions, respectively. For co-expression of NPR1 and CUL3 in E. coli, NPR1 or its mutant/truncation variants were first recombined into pDEST15 vector to generate N-terminal GST fusions (GST-NPR1). Next, E. coli-codon-optimized coding sequence of AtCUL3A fused to the Myc tag was amplified from pEG203-CUL3 and inserted between NdeI and XhoI in the MCS-II of pCDFDuet-1 to generate pCDFDuet-1:Myc-CUL3 plasmid. The two plasmids, pDEST15-NPR1 and pCDFDuet-1:Myc-CUL3, were co-transformed into the E. coli strain BL21(DE3) and protein expression was induced with 0.25 mM IPTG for 12 hr at 20° C. For co-expression of NPR1 and EDS1 in E. coli, the coding sequence of AtEDS1 (AT3G48090) fused to FLAG tag was inserted between NcoI and NotI in MCS-I of pETDuet-1 to first generate the pETDuet-1:FLAG-EDS1 plasmid. […] For bimolecular fluorescence complementation (BiFC), entry vectors carrying the coding sequences of genes and their mutant variants were recombined into the pSITE-cEYFP-N1 binary vector for C-terminal fusion with the cYFP half (YC), or into the pSITE-nEYFP-C1 for N-terminal fusion with the nYFP half (YN). […]

**Q.** How did the “BiFC signal of interaction with CUL3” value turn out when “NPR1: wild-type Arabidopsis thaliana NPR1 protein, positive regulator of systemic acquired resistance” was run?
**A.** clear interactions with CUL3 in discrete cytoplasmic condensates

**Q.** With B1 as the molecule, how does the “BiFC signal of interaction with CUL3” value read?
**A.** more intense

**Q.** How did the “BiFC signal of interaction with CUL3” value turn out when B2 was run?
**A.** significantly weaker BiFC signal
